Data reported in the supplement of paper PMC9112550, “Optimization of the antimicrobial peptide Bac7 by deep mutational scanning” (BMC Biology, 2022).

system: Escherichia coli TOP10; assay: shrunken log2 fold change of peptide-encoding DNA abundance (4.5 h post-induction vs induction); higher = less antimicrobial activity (less host growth inhibition); settings: time post-induction: 4.5 h; library: site-saturation at positions 5, 18, 19, 20
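Also: peptides expressed intracellularly from a pBAD plasmid library in pooled LB shake-flask culture, induced with 0.3% L-arabinose, DNA abundance read by NGS, three biological replicates, DESeq2 with apeglm shrinkage.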

Row | Sequence | shrunken log2 fold change
1 | RRIRCRPPRLPRPRPRPRLAPRP | 0.559
2 | RRIRQRPPRLPRPRPRPCAIPRP | -0.0067
3 | RRIRCRPPRLPRPRPRPNVCPRP | -0.00167
4 | RRIRHRPPRLPRPRPRPFAYPRP | -0.0167
5 | RRIRSRPPRLPRPRPRPHFFPRP | -0.0717
6 | RRIRSRPPRLPRPRPRPVYYPRP | -0.71
7 | RRIRKRPPRLPRPRPRPRFNPRP | 0.0969
8 | RRIRQRPPRLPRPRPRPMWEPRP | 0.00271
9 | RRIRGRPPRLPRPRPRPDQLPRP | 0.719
10 | RRIRFRPPRLPRPRPRPEEFPRP | -0.0316
11 | RRIRQRPPRLPRPRPRPLESPRP | -0.0344
12 | RRIRKRPPRLPRPRPRPQCDPRP | 0.279
13 | RRIRNRPPRLPRPRPRPNKPPRP | -0.122
14 | RRIRVRPPRLPRPRPRPGKNPRP | -0.22
15 | RRIRIRPPRLPRPRPRPDECPRP | 0.0238
16 | RRIRQRPPRLPRPRPRPMCPPRP | 0.00821
17 | RRIRERPPRLPRPRPRPAWEPRP | 0.506
18 | RRIRHRPPRLPRPRPRPYNLPRP | -0.302
19 | RRIRVRPPRLPRPRPRPETLPRP | -0.223
20 | RRIRIRPPRLPRPRPRPADNPRP | 0.00497
21 | RRIRGRPPRLPRPRPRPKVMPRP | 0.696
22 | RRIRVRPPRLPRPRPRPANEPRP | -0.174
23 | RRIRGRPPRLPRPRPRPRNGPRP | 0.343

Row | Sequence | shrunken log2 fold change
24 | RRIRERPPRLPRPRPRPIIPPRP | -0.835
25 | RRIRIRPPRLPRPRPRPWMEPRP | -0.172
26 | RRIRGRPPRLPRPRPRPGGPPRP | 0.968
27 | RRIRKRPPRLPRPRPRPRGVPRP | 0.782
28 | RRIRTRPPRLPRPRPRPTGDPRP | 0.475
29 | RRIRRRPPRLPRPRPRPWQCPRP | -0.0743
30 | RRIRIRPPRLPRPRPRPADSPRP | -0.325
31 | RRIRDRPPRLPRPRPRPEDMPRP | 1.81
32 | RRIRIRPPRLPRPRPRPKFQPRP | -0.327
33 | RRIRKRPPRLPRPRPRPVYNPRP | -0.0144
34 | RRIRSRPPRLPRPRPRPWTLPRP | -0.0934
35 | RRIRFRPPRLPRPRPRPVLRPRP | 0.113
36 | RRIRQRPPRLPRPRPRPYFTPRP | -0.818
37 | RRIRPRPPRLPRPRPRPHEEPRP | -0.000777
38 | RRIRKRPPRLPRPRPRPYTYPRP | -0.119
39 | RRIRWRPPRLPRPRPRPIGWPRP | 0.534
40 | RRIRSRPPRLPRPRPRPAHHPRP | 0.048
41 | RRIRQRPPRLPRPRPRPCICPRP | -0.542
42 | RRIRMRPPRLPRPRPRPMMDPRP | 0.0325
43 | RRIRFRPPRLPRPRPRPMQHPRP | 0.0148
44 | RRIRYRPPRLPRPRPRPHRQPRP | -0.0423
45 | RRIRVRPPRLPRPRPRPEYPPRP | -0.322
46 | RRIRCRPPRLPRPRPRPPVMPRP | 0.298

Row | Sequence | shrunken log2 fold change
47 | RRIRNRPPRLPRPRPRPKVKPRP | -0.196
48 | RRIRVRPPRLPRPRPRPMSCPRP | 0.0534
49 | RRIRYRPPRLPRPRPRPASVPRP | -0.256
50 | RRIRDRPPRLPRPRPRPQRQPRP | 0.0345
51 | RRIRTRPPRLPRPRPRPEMSPRP | -0.145
52 | RRIRMRPPRLPRPRPRPYQPPRP | 0.0396
53 | RRIRIRPPRLPRPRPRPEHLPRP | -0.105
54 | RRIRVRPPRLPRPRPRPGAVPRP | 0.481
55 | RRIRRRPPRLPRPRPRPQHHPRP | -0.0809
56 | RRIRSRPPRLPRPRPRPCFIPRP | -0.688
57 | RRIRDRPPRLPRPRPRPSGQPRP | -0.0305
58 | RRIRTRPPRLPRPRPRPLHRPRP | -0.287
59 | RRIRLRPPRLPRPRPRPASQPRP | -0.18
60 | RRIRTRPPRLPRPRPRPGPVPRP | 0.141
61 | RRIRKRPPRLPRPRPRPMVNPRP | 1.55
62 | RRIRMRPPRLPRPRPRPKHKPRP | 0.562
63 | RRIRSRPPRLPRPRPRPHHEPRP | -0.0237
64 | RRIRRRPPRLPRPRPRPVNHPRP | 0.177
65 | RRIRGRPPRLPRPRPRPERAPRP | 1.4
66 | RRIRVRPPRLPRPRPRPEKCPRP | 0.0903
67 | RRIRMRPPRLPRPRPRPATFPRP | 0.376
68 | RRIRPRPPRLPRPRPRPPADPRP | 0.593
69 | RRIRHRPPRLPRPRPRPEPFPRP | 0.0638

Row | Sequence | shrunken log2 fold change
70 | RRIRVRPPRLPRPRPRPEEIPRP | -0.0172
71 | RRIRSRPPRLPRPRPRPIYTPRP | -0.548
72 | RRIRGRPPRLPRPRPRPKKNPRP | 0.778
73 | RRIRCRPPRLPRPRPRPIFSPRP | -0.0342
74 | RRIRVRPPRLPRPRPRPAYMPRP | -0.271
75 | RRIRYRPPRLPRPRPRPISHPRP | -0.675
76 | RRIRFRPPRLPRPRPRPQFSPRP | -0.401
77 | RRIRKRPPRLPRPRPRPAYLPRP | 0.105
78 | RRIRGRPPRLPRPRPRPTETPRP | 0.559
79 | RRIRRRPPRLPRPRPRPACTPRP | 0.181
80 | RRIRNRPPRLPRPRPRPLIHPRP | -0.714
81 | RRIRCRPPRLPRPRPRPQWPPRP | 0.0205
82 | RRIRPRPPRLPRPRPRPKPNPRP | 0.356
83 | RRIRKRPPRLPRPRPRPQPTPRP | 0.5
84 | RRIRQRPPRLPRPRPRPTQRPRP | 0.548
85 | RRIRSRPPRLPRPRPRPVDAPRP | 0.0786
86 | RRIRIRPPRLPRPRPRPHEFPRP | -0.241
87 | RRIRTRPPRLPRPRPRPVIEPRP | -0.408
88 | RRIRYRPPRLPRPRPRPVFNPRP | -1.32
89 | RRIRYRPPRLPRPRPRPMRPPRP | 0.512
90 | RRIRTRPPRLPRPRPRPPGEPRP | 0.318
91 | RRIRYRPPRLPRPRPRPYACPRP | 0.00253
